# In patent US20100120695A1 (University of Pennsylvania, published 2010):
# Square brackets hold non-standard residues; d marks the D form. Ends that are not written are not given here. AEEA = NCCOCCOCC(=O)O
# T1: fluorescein-5-isothiourea-tagged αIIb-TM (fluorescein-5-isothiourea (FITC) attached via an ε-aminohexanoic acid linker to the N-terminus)
# T1 construct: also called FITC-αIIb-TM; αIIb-TM-FITC
# T1 peptide: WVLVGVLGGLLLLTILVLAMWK
# T2: αV-TM-coum (coumarin label (site not stated))
# T2 peptide: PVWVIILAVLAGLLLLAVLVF
# How the values were obtained:
# [1] = molecular target: the molecule itself; assay: analytical ultracentrifugation, equilibrium sedimentation, homodimer, 5 mM C14-betaine micelles
# Protocol: (§1) Equilibrium sedimentation was used primarily to determine the association state of the peptides, but also to provide a rough estimate of the heterodimeric association constants. […] Peptides were co-dissolved in CF₃CH₂OH (Sigma-Aldrich, St. Louis, Mo.) and C14-betaine (3-(N,N-dimethylmyristyl-ammonio)propanesulfonate; Sigma-Aldrich, St. Louis, Mo.). […] The final concentration of C-14 betaine is 5 mM in the samples. Samples were prepared in a total peptide concentration of 50 μM (in case of heterodimer formation, a 1:1 mixture was prepared) and incubated overnight. Data at three measurement speeds (40, 45, and 50 KRPM for αIIb peptides and 30, 35, and 40 KRPM for the αv peptides) were analyzed by global curve-fitting of radial concentration gradients (measured using optical absorption) (FIG. 8a-8f) to the sedimentation equilibrium equation for monomer-dimer equilibria among the peptides included in the solution. […] Aqueous solution molar extinction coefficients at 280 nm were calculated using the program Sednterp. […] These coefficients were multiplied by the molar detergent concentration to provide mole ratio concentration units.
# (§2) Ultracentrifugation data (FIG. 8) were first collected for the individual peptides.
# [2] = molecular target: T1, fluorescein-5-isothiourea-tagged αIIb-TM; assay: analytical ultracentrifugation, equilibrium sedimentation, heterodimer, 1:1 mixture in 5 mM C14-betaine micelles
# Protocol: as §1, §2
# [3] = molecular target: integrin αVβ3 on human platelets (human, UniProt P06756 31-1048; P05106 27-788); assay: cell-based or functional assay
# αV-TM-coum = molecular target: T2, αV-TM-coum; assay: analytical ultracentrifugation, equilibrium sedimentation, heterodimer, 1:1 mixture in 5 mM C14-betaine micelles
# Protocol: as §1, §2
# Sequence of integrin αVβ3 on human platelets (P06756 31-1048, chain 1 of 2): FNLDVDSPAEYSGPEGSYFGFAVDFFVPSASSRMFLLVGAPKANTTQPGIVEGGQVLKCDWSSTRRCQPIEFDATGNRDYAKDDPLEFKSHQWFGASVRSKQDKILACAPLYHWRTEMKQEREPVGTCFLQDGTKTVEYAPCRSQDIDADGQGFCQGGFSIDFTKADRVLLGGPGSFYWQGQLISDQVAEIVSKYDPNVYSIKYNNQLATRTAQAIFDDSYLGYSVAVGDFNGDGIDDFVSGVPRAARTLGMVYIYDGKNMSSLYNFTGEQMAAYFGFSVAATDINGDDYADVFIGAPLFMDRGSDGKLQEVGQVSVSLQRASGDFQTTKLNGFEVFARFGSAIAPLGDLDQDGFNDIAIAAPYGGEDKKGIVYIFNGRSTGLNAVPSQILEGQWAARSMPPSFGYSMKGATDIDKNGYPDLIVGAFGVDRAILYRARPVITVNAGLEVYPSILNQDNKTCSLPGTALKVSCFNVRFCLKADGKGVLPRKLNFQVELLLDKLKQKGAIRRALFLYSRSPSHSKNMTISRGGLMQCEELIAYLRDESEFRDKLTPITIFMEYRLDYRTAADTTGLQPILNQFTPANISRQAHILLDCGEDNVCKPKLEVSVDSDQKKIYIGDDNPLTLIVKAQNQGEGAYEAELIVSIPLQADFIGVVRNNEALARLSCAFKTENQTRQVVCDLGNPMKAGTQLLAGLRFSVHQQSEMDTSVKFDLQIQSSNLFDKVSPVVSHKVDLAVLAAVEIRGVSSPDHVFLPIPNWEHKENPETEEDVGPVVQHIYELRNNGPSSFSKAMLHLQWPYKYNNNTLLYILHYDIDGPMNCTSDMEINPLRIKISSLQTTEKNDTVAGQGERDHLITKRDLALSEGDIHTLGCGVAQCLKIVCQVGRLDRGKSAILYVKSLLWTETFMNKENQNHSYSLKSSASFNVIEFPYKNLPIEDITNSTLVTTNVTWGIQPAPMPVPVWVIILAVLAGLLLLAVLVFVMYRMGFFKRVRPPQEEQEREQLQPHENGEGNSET
# Sequence of integrin αVβ3 on human platelets (P05106 27-788, chain 2 of 2): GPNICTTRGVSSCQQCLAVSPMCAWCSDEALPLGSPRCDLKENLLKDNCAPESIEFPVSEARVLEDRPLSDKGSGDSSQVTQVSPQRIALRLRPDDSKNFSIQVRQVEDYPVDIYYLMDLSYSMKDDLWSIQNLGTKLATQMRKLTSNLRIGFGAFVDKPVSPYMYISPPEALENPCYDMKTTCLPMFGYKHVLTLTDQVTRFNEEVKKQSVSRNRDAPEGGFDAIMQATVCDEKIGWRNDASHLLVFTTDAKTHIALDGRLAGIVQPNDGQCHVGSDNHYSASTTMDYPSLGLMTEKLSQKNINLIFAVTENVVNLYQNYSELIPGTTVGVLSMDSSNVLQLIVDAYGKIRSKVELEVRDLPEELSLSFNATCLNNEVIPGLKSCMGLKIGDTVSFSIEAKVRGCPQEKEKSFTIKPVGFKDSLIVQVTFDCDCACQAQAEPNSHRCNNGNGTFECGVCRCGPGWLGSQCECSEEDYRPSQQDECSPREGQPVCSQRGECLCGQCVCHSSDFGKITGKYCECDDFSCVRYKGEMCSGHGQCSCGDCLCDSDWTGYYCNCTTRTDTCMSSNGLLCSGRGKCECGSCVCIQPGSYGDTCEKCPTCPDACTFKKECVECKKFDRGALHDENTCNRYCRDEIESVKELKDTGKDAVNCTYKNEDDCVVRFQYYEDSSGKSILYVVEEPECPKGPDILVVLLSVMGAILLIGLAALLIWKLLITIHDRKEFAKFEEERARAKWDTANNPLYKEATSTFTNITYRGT
binder,measurement,setting,value
PVWVIILAVLAGLLLLAVLVF [αV-TM],Dimerization pKdiss,[1],0.7 pKdiss (mole ratio units)
"KKAYVMLLPFFIGLLLGLIFGGAFWGPARHLKK (designed binder, also: FITC-labeled, site not given here) [Anti-αIIb (FITC-labeled)]",Dimerization pKdiss,[1],2.3 pKdiss (mole ratio units)
"KKAYVMLLPFFIGLLLGLIFGGAFWGPARHLKK (designed binder, also called anti-am) [anti-αIIb polypeptide]",Dimerization pKdiss,[2],2.6 pKdiss (mole ratio units)
WVLVGVLGGLLLLTILVLAMWK [αIIb-TM polypeptide],Dimerization pKdiss,[1],1.8 pKdiss (mole ratio units)
"AYVFILLSFILGTLLGFLVMFWA (designed binder, also: coumarin-labeled, site not given here) [Anti-αV(coumarin-labeled)]",Dimerization pKdiss,[1],1.4 pKdiss (mole ratio units)
[AEEA]AYVFILLSFILGTLLGFLVMFWA (designed binder) [anti-αV polypeptide],fold decrease in potency in inducing platelet adhesion to immobilized osteopontin,[3],~10 fold
same,Dimerization pKdiss,αV-TM-coum,> 2 pKdiss (mole ratio units)
